Measurements as given in article PMC7044312, “NMT1 and NMT2 are lysine myristoyltransferases regulating the ARF6 GTPase cycle” (Nature Communications, 2020).
No end group written: not given here.

Biological target: T1, NMT1 (115–496), NMT catalytic domain (human, UniProt P30419 115-496)
T1 construct: human N-myristoyltransferase 1, catalytic domain, residues 115-496; Crystallised with myristoyl-CoA; also called N-myristoyltransferase 1; source: E. coli BL21, purified (Ni-NTA, PreScission cleavage, Superdex 75)
T1 sequence (looked up): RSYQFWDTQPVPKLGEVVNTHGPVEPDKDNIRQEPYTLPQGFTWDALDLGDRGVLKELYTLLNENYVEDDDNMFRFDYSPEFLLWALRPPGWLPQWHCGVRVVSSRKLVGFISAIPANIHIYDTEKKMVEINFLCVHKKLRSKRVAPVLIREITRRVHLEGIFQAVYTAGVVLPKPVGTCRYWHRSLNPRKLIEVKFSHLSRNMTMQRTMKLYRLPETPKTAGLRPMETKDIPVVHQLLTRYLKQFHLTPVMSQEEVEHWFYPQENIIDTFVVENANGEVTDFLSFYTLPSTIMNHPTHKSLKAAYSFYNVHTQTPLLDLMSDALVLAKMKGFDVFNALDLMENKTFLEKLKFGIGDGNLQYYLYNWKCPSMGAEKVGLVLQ
Assay: crystal structure; NMT1 7.5 mg/ml in 25 mM Tris-HCl pH 7.5, 120 mM NaCl, with 0.3 mM myristoyl-CoA and 0.3 mM AcKVLSKIF; well 18% PEG 8000, 100 mM NaCl, 100 mM sodium citrate pH 5.6, 100 mM MgCl2
Settings: both partners purified

binding result: binds
B1: Ac-KVLSKIF peptide (peptide)
peptide: Ac-KVLSKIF
modifications: also: myristoyl on Lys3 side chain (residue 3 is L), formed in crystal
notes: derived from the N-terminus of ARF6, G2 deleted; also called acetyl-KVLSKIF; myristoyl-AcKVLSKIF; source: synthetic peptide (synthesized in-house)
